Measurements reported in patent publication US20100093076A1, “SOLUBLE IL-27 RECEPTOR” (priority 2006, published 2010).
Where “and” joins values, the source holds several entries; their conditions need not be identical. Equal values may be shown once.

Assays:
[1] = Pharmacokinetics of soluble receptors in female C57B1/6 mice (serum ELISA, noncompartmental analysis); assay type: in vivo, mouse; conditions: 100 μg; for AUCINF: extrapolated to infinity
Protocol: Studies were performed to evaluate the pharmacokinetics of the mouse (IL-27RAm(mFc1)) and human (IL-27RA-Fc5) soluble receptors in female C57B1/6 mice.
Serum was generated from each sample and analyzed by a qualified enzyme-linked immunosorbant assay (ELISA). The resulting mean serum concentration versus time profiles were then subjected to noncompartmental pharmacokinetic analyses. The following pharmacokinetic parameters were calculated: C0 and Cmax (extrapolated concentration at time zero and maximum serum concentration, respectively), Tmax (time to achieve maximum concentration), t1/2 λz (terminal half-life), AUC0-t (area under the concentration versus time curve from time zero to the last measurable time point), AUCINF (area under the concentration versus time curve extrapolated to infinity), C1 or C1/F (clearance or clearance divided by bioavailable fraction, respectively), VSS or VZ/F (steady state volume of distribution or volume of distribution divided by the bioavailable fraction, respectively), and F (bioavailable fraction).

P815 cells = experiment: CTL-specific lysis assay with splenocytes of GVHD mice; assay type: cell-based, mouse; conditions: splenocytes of treated GVHD mice against calcein-labeled P815 cells; versus PBS group
Protocol: Efficacy of IL-27 antagonists was assayed in a mouse model of acute graft-vs-host disease (Durie et al., J. Clin. Invest. 94:1333-1338, 1994). Parental mice (C57BL/6; n=12) were euthanized, and their spleens were collected. The pooled spleens were smashed using two glass slides to dissociate splenic cells. Lysis buffer was added to the splenocyte suspension to remove red blood cells. The cells were washed in RPMI 1640 (10% FBS) medium and resuspended in an appropriate amount of PBS to make a cell concentration of 300 million cells/ml. Protein treatments were administered by intraperitoneal injection every other day beginning on day-1 and continuing until day 15. Dexamethasone (DEX) was administered by injection daily on days 0 through 6. […] Mice were monitored 3 times a week for changes in body weight and any signs of moribundity. […] Spleens were collected, and a CTL-specific lysis assay using P815 cells was performed as a quantitative measurement of acute GVHD. […]
For CTL assay, P815 cells (a tumor cell line from mice with the same MHC class as DBA2) were labeled with calcein, then splenocytes from each experimental animal were added to the calcein-labeled P815 cells at effector (splenocytes):target (P815) ratios of 100:1, 33:1, and 10:1. Four hours after incubation at 37° C., supernatants were collected and fluorescence was measured (485 nm/535 nm).

single-chain mouse IL-27 = biological target: T1, single-chain mouse IL-27 (Mus musculus, UniProt O35228+Q8K3I6); experiment: IL-27 inhibition of IL-2 production neutralized by IL-27RA Fc (third set of experiments); assay type: cell-based; conditions: + IL-27 (10 ng/ml)
T1 sequence (O35228+Q8K3I6 with tags, fused parts or gaps): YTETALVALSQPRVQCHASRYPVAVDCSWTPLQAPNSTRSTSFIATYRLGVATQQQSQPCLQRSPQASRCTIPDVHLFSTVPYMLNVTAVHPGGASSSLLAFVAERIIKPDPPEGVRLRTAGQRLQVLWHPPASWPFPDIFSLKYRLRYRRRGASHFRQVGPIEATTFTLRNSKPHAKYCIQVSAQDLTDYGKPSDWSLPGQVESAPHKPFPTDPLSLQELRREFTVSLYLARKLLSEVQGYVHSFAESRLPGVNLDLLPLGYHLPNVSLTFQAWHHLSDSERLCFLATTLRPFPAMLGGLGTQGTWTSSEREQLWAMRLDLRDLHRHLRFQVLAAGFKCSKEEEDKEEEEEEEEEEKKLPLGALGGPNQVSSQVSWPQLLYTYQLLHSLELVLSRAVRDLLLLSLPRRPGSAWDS
Protocol: Naïve mouse CD4 T-cells were isolated as described above. For testing of the neutralizing mAbs, the naïve CD4 T cells were preincubated for 30 minutes at 37 degrees C. with graded concentrations (60, 30, 15, 7.5, 3.75, 1.875.micro.g/ml) of either neutralizing rat anti-mouse IL27RA mAb (each mAb tested separately), rat IgG1 isotype control mAb, rat IgG2a isotype control mAb, or no mAb. […] The CD4 T cells (4×10^5/well) were then transferred to anti-CD3 coated tissue culture plates. Single-chain mouse IL-27 (10 ng/ml) was then added to the plates. Duplicate plates were set up for all experimental conditions. The plates were then cultured at 37 degrees for up to 72 hours.
For testing of the soluble receptor, single-chain mouse IL-27 (10 ng/ml) was preincubated for 30 minutes at 37 degrees C. with either IL27RAm(mFc1) (10.0 and 5.0.micro.g/ml), IL27RA-Fc5, mouse Fc1 protein (10.0 and 5.0.micro.g/ml), human Fc5 protein (10.0 and 5.0.micro.g/ml), or no recombinant protein in wells of the anti-CD3 coated plates. 4×10^5 CD4^+ CD62L high cells were added to the wells. Duplicate plates were set up for all experimental conditions. The plates were then cultured at 37 degrees for up to 72 hours. Cell supernatants were collected from one set of plates at 48 hours and from the duplicate set of plates at 72 hours. The supernatants were stored frozen at −80° C.

human IL-27RA-Fc5: Extracellular domain of human IL27RA (amino acids 1 to 512 of SEQ ID NO:3) fused to Fc5, effector minus human gamma1 Fc; SEQ ID NO:16
AUC0-120 ([1]; IP): 1310 µg·h/mL
Cl/F ([1]; IP): 0.0725 mL/h
Tmax ([1]; IP): 3 h
t1/2 λz (terminal half-life) ([1]; IP): 28.3 h
Cmax ([1]; IP, mouse serum): 35200 ng/mL
AUCINF ([1]; IP): 1380 µg·h/mL
AUC0-120 ([1]; IV): 1400 µg·h/mL
Cl ([1]; IV): 0.0664 mL/h
Vss ([1]; IV): 2.54 mL
t1/2 λz (terminal half-life) ([1]; IV): 34.9 h
Co (extrapolated concentration at time zero) ([1]; IV, mouse serum): 122 µg/mL
AUCINF ([1]; IV): 1510 µg·h/mL
AUC0-120 ([1]; SC): 1130 µg·h/mL
Cl/F ([1]; SC): 0.0828 mL/h
Tmax ([1]; SC): 6 h
t1/2 λz (terminal half-life) ([1]; SC): 29.3 h
Cmax ([1]; SC, mouse serum): 21000 ng/mL
AUCINF ([1]; SC): 1210 µg·h/mL
CTL activity (P815 cells): reduced CTL activity compared to the PBS group
IL-2 concentration (single-chain mouse IL-27; 48 hr, protein conc. 5 (μg/ml; Fc controls in molar equiv.)): 5784.11 pg/mL
IL-2 concentration (single-chain mouse IL-27; 48 hr, protein conc. 10 (μg/ml; Fc controls in molar equiv.), listed as hIL-27RA): 5774.94 pg/mL and 5333.6 pg/mL
IL-2 concentration (single-chain mouse IL-27; 72 hr, protein conc. 5 (μg/ml; Fc controls in molar equiv.)): 1869.62 pg/mL
IL-2 concentration (single-chain mouse IL-27; 72 hr, protein conc. 10 (μg/ml; Fc controls in molar equiv.), listed as hIL-27RA): 28607.63 pg/mL and 17481.17 pg/mL
